Reference: patent US20160272683A1 (Novo Nordisk, published 2016)
Numbered stars: 1 amine (or outer) side, 2 acyl side, 3 side chain; on linkers, the order of the positions; unused ones are H or OH. * marks the point of attachment. C20 diacid = O=C(O)CCCCCCCCCCCCCCCCCCC(=O)*; C18 diacid = O=C(O)CCCCCCCCCCCCCCCCC(=O)*; γGlu = O=C(O)[C@H](CCC(=O)[*:2])N[*:1]

B1: [N-terminal(C18 diacid-gGlu), des1, 30S, 31G, 32P]mimylin (peptide)
peptide: {C18 diacid-γGlu}-ASELSTAALGRLSAELHELATLPRTETGSGPP-NH2
SMILES: CC(C)C[C@H](NC(=O)[C@H](C)NC(=O)[C@H](C)NC(=O)[C@@H](NC(=O)[C@H](CO)NC(=O)[C@H](CC(C)C)NC(=O)[C@H](CCC(=O)O)NC(=O)[C@H](CO)NC(=O)[C@H](C)NC(=O)CC[C@H](NC(=O)CCCCCCCCCCCCCCCCC(=O)O)C(=O)O)[C@@H](C)O)C(=O)NCC(=O)N[C@@H](CCCNC(=N)N)C(=O)N[C@@H](CC(C)C)C(=O)N[C@@H](CO)C(=O)N[C@@H](C)C(=O)N[C@@H](CCC(=O)O)C(=O)N[C@@H](CC(C)C)C(=O)N[C@@H](Cc1c[nH]cn1)C(=O)N[C@@H](CCC(=O)O)C(=O)N[C@@H](CC(C)C)C(=O)N[C@@H](C)C(=O)N[C@H](C(=O)N[C@@H](CC(C)C)C(=O)N1CCC[C@H]1C(=O)N[C@@H](CCCNC(=N)N)C(=O)N[C@H](C(=O)N[C@@H](CCC(=O)O)C(=O)N[C@H](C(=O)NCC(=O)N[C@@H](CO)C(=O)NCC(=O)N1CCC[C@H]1C(=O)N1CCC[C@H]1C(N)=O)[C@@H](C)O)[C@@H](C)O)[C@@H](C)O
B2: [N-terminal(C20 diacid-gGlu), des1, 25H, 30S, 31G]mimylin (peptide)
peptide: {C20 diacid-γGlu}-ASELSTAALGRLSAELHELATLPHTETGSGSP-NH2
SMILES: CC(C)C[C@H](NC(=O)[C@H](C)NC(=O)[C@H](C)NC(=O)[C@@H](NC(=O)[C@H](CO)NC(=O)[C@H](CC(C)C)NC(=O)[C@H](CCC(=O)O)NC(=O)[C@H](CO)NC(=O)[C@H](C)NC(=O)CC[C@H](NC(=O)CCCCCCCCCCCCCCCCCCC(=O)O)C(=O)O)[C@@H](C)O)C(=O)NCC(=O)N[C@@H](CCCNC(=N)N)C(=O)N[C@@H](CC(C)C)C(=O)N[C@@H](CO)C(=O)N[C@@H](C)C(=O)N[C@@H](CCC(=O)O)C(=O)N[C@@H](CC(C)C)C(=O)N[C@@H](Cc1c[nH]cn1)C(=O)N[C@@H](CCC(=O)O)C(=O)N[C@@H](CC(C)C)C(=O)N[C@@H](C)C(=O)N[C@H](C(=O)N[C@@H](CC(C)C)C(=O)N1CCC[C@H]1C(=O)N[C@@H](Cc1c[nH]cn1)C(=O)N[C@H](C(=O)N[C@@H](CCC(=O)O)C(=O)N[C@H](C(=O)NCC(=O)N[C@@H](CO)C(=O)NCC(=O)N[C@@H](CO)C(=O)N1CCC[C@H]1C(N)=O)[C@@H](C)O)[C@@H](C)O)[C@@H](C)O
B3: [N-terminal(C20 diacid-gGlu), des1, 30T, 31G, 32T]mimylin (peptide)
peptide: {C20 diacid-γGlu}-ASELSTAALGRLSAELHELATLPRTETGTGTP-NH2
SMILES: CC(C)C[C@H](NC(=O)[C@H](C)NC(=O)[C@H](C)NC(=O)[C@@H](NC(=O)[C@H](CO)NC(=O)[C@H](CC(C)C)NC(=O)[C@H](CCC(=O)O)NC(=O)[C@H](CO)NC(=O)[C@H](C)NC(=O)CC[C@H](NC(=O)CCCCCCCCCCCCCCCCCCC(=O)O)C(=O)O)[C@@H](C)O)C(=O)NCC(=O)N[C@@H](CCCNC(=N)N)C(=O)N[C@@H](CC(C)C)C(=O)N[C@@H](CO)C(=O)N[C@@H](C)C(=O)N[C@@H](CCC(=O)O)C(=O)N[C@@H](CC(C)C)C(=O)N[C@@H](Cc1c[nH]cn1)C(=O)N[C@@H](CCC(=O)O)C(=O)N[C@@H](CC(C)C)C(=O)N[C@@H](C)C(=O)N[C@H](C(=O)N[C@@H](CC(C)C)C(=O)N1CCC[C@H]1C(=O)N[C@@H](CCCNC(=N)N)C(=O)N[C@H](C(=O)N[C@@H](CCC(=O)O)C(=O)N[C@H](C(=O)NCC(=O)N[C@H](C(=O)NCC(=O)N[C@H](C(=O)N1CCC[C@H]1C(N)=O)[C@@H](C)O)[C@@H](C)O)[C@@H](C)O)[C@@H](C)O)[C@@H](C)O

target: T1, human calcitonin receptor on BHK570/CRE-luc cells (human, UniProt P30988 25-474); assay: cell-based or functional assay
T1 sequence (looked up): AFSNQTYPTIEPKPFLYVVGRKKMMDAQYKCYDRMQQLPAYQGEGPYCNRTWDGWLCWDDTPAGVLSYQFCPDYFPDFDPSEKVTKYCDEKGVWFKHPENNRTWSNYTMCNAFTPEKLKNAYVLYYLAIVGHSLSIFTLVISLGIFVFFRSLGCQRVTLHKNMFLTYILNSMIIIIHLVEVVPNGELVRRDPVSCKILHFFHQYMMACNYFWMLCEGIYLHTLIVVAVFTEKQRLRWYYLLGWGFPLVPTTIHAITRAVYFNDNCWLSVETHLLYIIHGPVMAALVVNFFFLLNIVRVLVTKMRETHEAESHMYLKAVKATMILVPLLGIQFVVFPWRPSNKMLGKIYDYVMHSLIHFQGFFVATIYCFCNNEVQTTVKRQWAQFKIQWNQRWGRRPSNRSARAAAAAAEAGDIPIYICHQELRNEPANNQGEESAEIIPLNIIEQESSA

Binder	hCTR funct. EC50 (pM), tested with HSA [pM]
B1	95
B2	22
B3	56

target: T2, human amylin 3(a) receptor (human calcitonin receptor co-expressed with RAMP-3) on BHK570/CRE-luc cells (human, UniProt P30988 25-474; O60896 24-148); assay: cell-based or functional assay
T2 sequence (looked up) 1: T1 sequence (looked up)
T2 sequence (looked up) 2: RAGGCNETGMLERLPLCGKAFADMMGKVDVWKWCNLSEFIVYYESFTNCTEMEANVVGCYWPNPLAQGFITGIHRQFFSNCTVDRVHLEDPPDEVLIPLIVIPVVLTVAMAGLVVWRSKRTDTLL

Binder	hAmylin-R funct. EC50 (pM), tested with HSA [pM]
B1	413
B2	185
B3	134
